Laboratory results taken from US20260176319A1 (KALLYOPE, published 2026).
Values belong to the binder of their own block, whether it stands above or below them. Starred links: 1 amine or outer side, 2 acyl side, 3 side chain; linkers in the order of their positions; H or OH if unused. Non-standard residues stand in square brackets, D forms with d. Groups on a side chain read outwards from the residue. *: point of attachment. Trp(7-F) = N[C@@H](Cc1c[nH]c2c(F)cccc12)C(=O)O; Trp(7-Me) = Cc1cccc2c(C[C@H](N)C(=O)O)c[nH]c12; d(γGlu) = O=C(O)[C@@H](CCC(=O)[*:2])N[*:1]; C18 diacid = O=C(O)CCCCCCCCCCCCCCCCC(=O)*; Palmitoyl = CCCCCCCCCCCCCCCC(=O)*; 2Pal = N[C@@H](Cc1ccccn1)C(=O)O; 3Pal = N[C@@H](Cc1cccnc1)C(=O)O; 4Pal = N[C@@H](Cc1ccncc1)C(=O)O; Nle = CCCC[C@H](N)C(=O)O; AEEA = NCCOCCOCC(=O)O; Aib = CC(C)(N)C(=O)O; Sar = CNCC(=O)O

Biological target: human GRP receptor (human, UniProt P30550 1-384)
Test: cell-based or functional assay

Chain of human GRP receptor (P30550 whole entry): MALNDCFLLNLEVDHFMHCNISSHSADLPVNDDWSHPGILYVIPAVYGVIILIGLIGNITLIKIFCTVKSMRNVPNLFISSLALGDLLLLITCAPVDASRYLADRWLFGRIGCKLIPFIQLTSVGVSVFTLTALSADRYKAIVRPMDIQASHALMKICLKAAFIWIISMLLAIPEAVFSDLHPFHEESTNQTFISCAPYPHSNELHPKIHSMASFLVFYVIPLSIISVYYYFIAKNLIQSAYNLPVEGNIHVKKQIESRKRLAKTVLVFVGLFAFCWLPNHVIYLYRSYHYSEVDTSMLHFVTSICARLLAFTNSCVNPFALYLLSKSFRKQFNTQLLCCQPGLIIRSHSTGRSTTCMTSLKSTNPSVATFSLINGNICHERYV

hIP1 GRPR EC50: 1.97 nM
B3: Peptide 56 (peptide)
peptide: Palmitoyl-[d(γGlu)][AEEA][AEEA]GNH[Trp(7-F)]AV[dA]HL[Nle]-NH2
SMILES: CCCCCCCCCCCCCCCC(=O)N[C@H](CCC(=O)NCCOCCOCC(=O)NCCOCCOCC(=O)NCC(=O)N[C@@H](CC(N)=O)C(=O)N[C@@H](Cc1c[nH]cn1)C(=O)N[C@@H](Cc1c[nH]c2c(F)cccc12)C(=O)N[C@@H](C)C(=O)N[C@H](C(=O)N[C@H](C)C(=O)N[C@@H](Cc1c[nH]cn1)C(=O)N[C@@H](CC(C)C)C(=O)N[C@@H](CCCC)C(N)=O)C(C)C)C(=O)O

hIP1 GRPR EC50: 4.22 nM
B4: Peptide 58 (peptide)
peptide: Palmitoyl-[d(γGlu)][AEEA][AEEA][AEEA][AEEA]GN[3Pal][Trp(7-Me)]AV[dA]HL[Nle]-NH2
SMILES: CCCCCCCCCCCCCCCC(=O)N[C@H](CCC(=O)NCCOCCOCC(=O)NCCOCCOCC(=O)NCCOCCOCC(=O)NCCOCCOCC(=O)NCC(=O)N[C@@H](CC(N)=O)C(=O)N[C@@H](Cc1cccnc1)C(=O)N[C@@H](Cc1c[nH]c2c(C)cccc12)C(=O)N[C@@H](C)C(=O)N[C@H](C(=O)N[C@H](C)C(=O)N[C@@H](Cc1c[nH]cn1)C(=O)N[C@@H](CC(C)C)C(=O)N[C@@H](CCCC)C(N)=O)C(C)C)C(=O)O

hIP1 GRPR EC50: 0.95 nM
B5: Peptide 51 (peptide)
peptide: Palmitoyl-[d(γGlu)][AEEA][AEEA]GN[2Pal]WAV[dA]HL[Nle]-NH2
SMILES: CCCCCCCCCCCCCCCC(=O)N[C@H](CCC(=O)NCCOCCOCC(=O)NCCOCCOCC(=O)NCC(=O)N[C@@H](CC(N)=O)C(=O)N[C@@H](Cc1ccccn1)C(=O)N[C@@H](Cc1c[nH]c2ccccc12)C(=O)N[C@@H](C)C(=O)N[C@H](C(=O)N[C@H](C)C(=O)N[C@@H](Cc1c[nH]cn1)C(=O)N[C@@H](CC(C)C)C(=O)N[C@@H](CCCC)C(N)=O)C(C)C)C(=O)O

hIP1 GRPR EC50: 42 nM
B7: Peptide 53 (peptide)
peptide: {C18 diacid}-[d(γGlu)][AEEA][AEEA][AEEA][AEEA]GNHWAV[dA]HL[Nle]-NH2
SMILES: CCCC[C@H](NC(=O)[C@H](CC(C)C)NC(=O)[C@H](Cc1c[nH]cn1)NC(=O)[C@@H](C)NC(=O)[C@@H](NC(=O)[C@H](C)NC(=O)[C@H](Cc1c[nH]c2ccccc12)NC(=O)[C@H](Cc1c[nH]cn1)NC(=O)[C@H](CC(N)=O)NC(=O)CNC(=O)COCCOCCNC(=O)COCCOCCNC(=O)COCCOCCNC(=O)COCCOCCNC(=O)CC[C@@H](NC(=O)CCCCCCCCCCCCCCCCC(=O)O)C(=O)O)C(C)C)C(N)=O

hIP1 GRPR EC50: 72.8 nM
B8: Peptide 57 (peptide)
peptide: Palmitoyl-[d(γGlu)][AEEA][AEEA]GK([AEEA-AEEA-d(γGlu)-Palmitoyl])HWAV[dA]HL[Nle]-NH2
SMILES: CCCCCCCCCCCCCCCC(=O)N[C@H](CCC(=O)NCCOCCOCC(=O)NCCOCCOCC(=O)NCCCC[C@H](NC(=O)CNC(=O)COCCOCCNC(=O)COCCOCCNC(=O)CC[C@@H](NC(=O)CCCCCCCCCCCCCCC)C(=O)O)C(=O)N[C@@H](Cc1c[nH]cn1)C(=O)N[C@@H](Cc1c[nH]c2ccccc12)C(=O)N[C@@H](C)C(=O)N[C@H](C(=O)N[C@H](C)C(=O)N[C@@H](Cc1c[nH]cn1)C(=O)N[C@@H](CC(C)C)C(=O)N[C@@H](CCCC)C(N)=O)C(C)C)C(=O)O

hIP1 GRPR EC50: 4040 nM
Binder: EXXGNHWAVXHLK (Palmitoyl-D-γGlu-OEG-OEG-Gly-Asn-His-Trp-Ala-Val-D-Ala-His-Leu-Lys(Me)3-NH2) [Peptide 49]

hIP1 GRPR EC50: 3.12 nM
B10: Peptide 54 (peptide)
peptide: Palmitoyl-[d(γGlu)][AEEA][AEEA][AEEA][AEEA]GNHWAV[dA]HL[Nle]-NH2
SMILES: CCCCCCCCCCCCCCCC(=O)N[C@H](CCC(=O)NCCOCCOCC(=O)NCCOCCOCC(=O)NCCOCCOCC(=O)NCCOCCOCC(=O)NCC(=O)N[C@@H](CC(N)=O)C(=O)N[C@@H](Cc1c[nH]cn1)C(=O)N[C@@H](Cc1c[nH]c2ccccc12)C(=O)N[C@@H](C)C(=O)N[C@H](C(=O)N[C@H](C)C(=O)N[C@@H](Cc1c[nH]cn1)C(=O)N[C@@H](CC(C)C)C(=O)N[C@@H](CCCC)C(N)=O)C(C)C)C(=O)O

hIP1 GRPR EC50: 1.75 nM
B16: Peptide 52 (peptide)
peptide: Palmitoyl-[d(γGlu)][AEEA][AEEA]GN[4Pal]WAV[dA]HL[Nle]-NH2
SMILES: CCCCCCCCCCCCCCCC(=O)N[C@H](CCC(=O)NCCOCCOCC(=O)NCCOCCOCC(=O)NCC(=O)N[C@@H](CC(N)=O)C(=O)N[C@@H](Cc1ccncc1)C(=O)N[C@@H](Cc1c[nH]c2ccccc12)C(=O)N[C@@H](C)C(=O)N[C@H](C(=O)N[C@H](C)C(=O)N[C@@H](Cc1c[nH]cn1)C(=O)N[C@@H](CC(C)C)C(=O)N[C@@H](CCCC)C(N)=O)C(C)C)C(=O)O

Continued, binder first:

B1: Peptide 47 (peptide)
peptide: {C18 diacid}-[d(γGlu)][AEEA][AEEA]GNHWAV[dA]HL[Nle][Sar]-NH2
SMILES: CCCC[C@H](NC(=O)[C@H](CC(C)C)NC(=O)[C@H](Cc1c[nH]cn1)NC(=O)[C@@H](C)NC(=O)[C@@H](NC(=O)[C@H](C)NC(=O)[C@H](Cc1c[nH]c2ccccc12)NC(=O)[C@H](Cc1c[nH]cn1)NC(=O)[C@H](CC(N)=O)NC(=O)CNC(=O)COCCOCCNC(=O)COCCOCCNC(=O)CC[C@@H](NC(=O)CCCCCCCCCCCCCCCCC(=O)O)C(=O)O)C(C)C)C(=O)N(C)CC(N)=O
hIP1 GRPR EC50: 216 nM

B2: Peptide 46 (peptide)
peptide: {C18 diacid}-[dE][AEEA][AEEA]GNH[Trp(7-Me)]AV[dA]HL[Nle]-NH2
SMILES: CCCC[C@H](NC(=O)[C@H](CC(C)C)NC(=O)[C@H](Cc1c[nH]cn1)NC(=O)[C@@H](C)NC(=O)[C@@H](NC(=O)[C@H](C)NC(=O)[C@H](Cc1c[nH]c2c(C)cccc12)NC(=O)[C@H](Cc1c[nH]cn1)NC(=O)[C@H](CC(N)=O)NC(=O)CNC(=O)COCCOCCNC(=O)COCCOCCNC(=O)[C@@H](CCC(=O)O)NC(=O)CCCCCCCCCCCCCCCCC(=O)O)C(C)C)C(N)=O
hIP1 GRPR EC50: 9.9 nM

B6: Peptide 2 (peptide)
peptide: Palmitoyl-[d(γGlu)][AEEA][AEEA]GNHWAV[Aib][3Pal]L[Nle]-NH2
SMILES: CCCCCCCCCCCCCCCC(=O)N[C@H](CCC(=O)NCCOCCOCC(=O)NCCOCCOCC(=O)NCC(=O)N[C@@H](CC(N)=O)C(=O)N[C@@H](Cc1c[nH]cn1)C(=O)N[C@@H](Cc1c[nH]c2ccccc12)C(=O)N[C@@H](C)C(=O)N[C@H](C(=O)NC(C)(C)C(=O)N[C@@H](Cc1cccnc1)C(=O)N[C@@H](CC(C)C)C(=O)N[C@@H](CCCC)C(N)=O)C(C)C)C(=O)O
hIP1 GRPR EC50: 822 nM

B9: Peptide 26 (peptide)
peptide: Palmitoyl-[d(γGlu)]GNHWAV[dA]HL[Nle]-NH2
SMILES: CCCCCCCCCCCCCCCC(=O)N[C@H](CCC(=O)NCC(=O)N[C@@H](CC(N)=O)C(=O)N[C@@H](Cc1c[nH]cn1)C(=O)N[C@@H](Cc1c[nH]c2ccccc12)C(=O)N[C@@H](C)C(=O)N[C@H](C(=O)N[C@H](C)C(=O)N[C@@H](Cc1c[nH]cn1)C(=O)N[C@@H](CC(C)C)C(=O)N[C@@H](CCCC)C(N)=O)C(C)C)C(=O)O
hIP1 GRPR EC50: 1.8 nM

B11: Peptide 3 (peptide)
peptide: Palmitoyl-[d(γGlu)][AEEA][AEEA]GN[3Pal]WAV[Aib]HL[Nle]-NH2
SMILES: CCCCCCCCCCCCCCCC(=O)N[C@H](CCC(=O)NCCOCCOCC(=O)NCCOCCOCC(=O)NCC(=O)N[C@@H](CC(N)=O)C(=O)N[C@@H](Cc1cccnc1)C(=O)N[C@@H](Cc1c[nH]c2ccccc12)C(=O)N[C@@H](C)C(=O)N[C@H](C(=O)NC(C)(C)C(=O)N[C@@H](Cc1c[nH]cn1)C(=O)N[C@@H](CC(C)C)C(=O)N[C@@H](CCCC)C(N)=O)C(C)C)C(=O)O
hIP1 GRPR EC50: 8.7 nM

B12: Peptide 48 (peptide)
peptide: Palmitoyl-[d(γGlu)][AEEA][AEEA]GNHWAV[dA]HL[Nle][Sar]-NH2
SMILES: CCCCCCCCCCCCCCCC(=O)N[C@H](CCC(=O)NCCOCCOCC(=O)NCCOCCOCC(=O)NCC(=O)N[C@@H](CC(N)=O)C(=O)N[C@@H](Cc1c[nH]cn1)C(=O)N[C@@H](Cc1c[nH]c2ccccc12)C(=O)N[C@@H](C)C(=O)N[C@H](C(=O)N[C@H](C)C(=O)N[C@@H](Cc1c[nH]cn1)C(=O)N[C@@H](CC(C)C)C(=O)N[C@@H](CCCC)C(=O)N(C)CC(N)=O)C(C)C)C(=O)O
hIP1 GRPR EC50: 1.1 nM

B13: Peptide 24 (peptide)
peptide: Palmitoyl-[d(γGlu)][AEEA][AEEA]GEHWAV[Aib]HL[Nle]-NH2
SMILES: CCCCCCCCCCCCCCCC(=O)N[C@H](CCC(=O)NCCOCCOCC(=O)NCCOCCOCC(=O)NCC(=O)N[C@@H](CCC(=O)O)C(=O)N[C@@H](Cc1c[nH]cn1)C(=O)N[C@@H](Cc1c[nH]c2ccccc12)C(=O)N[C@@H](C)C(=O)N[C@H](C(=O)NC(C)(C)C(=O)N[C@@H](Cc1c[nH]cn1)C(=O)N[C@@H](CC(C)C)C(=O)N[C@@H](CCCC)C(N)=O)C(C)C)C(=O)O
hIP1 GRPR EC50: 183 nM

B14: Peptide 25 (peptide)
peptide: GNHWAVXHLX
modifications: not fully specified; Ac-Gly-Asn-His-Trp-Ala-Val-D-Ala-His-Leu-Nle-H2N(CH2)3NH2-OEG-OEG-(α-Palmitoyl-D-γGlu)
hIP1 GRPR EC50: 10000 nM

B15: Peptide 23 (peptide)
peptide: Palmitoyl-[d(γGlu)][AEEA][AEEA]GNH[Trp(7-Me)]AV[Aib][3Pal]L[Nle][Sar]-NH2
SMILES: CCCCCCCCCCCCCCCC(=O)N[C@H](CCC(=O)NCCOCCOCC(=O)NCCOCCOCC(=O)NCC(=O)N[C@@H](CC(N)=O)C(=O)N[C@@H](Cc1c[nH]cn1)C(=O)N[C@@H](Cc1c[nH]c2c(C)cccc12)C(=O)N[C@@H](C)C(=O)N[C@H](C(=O)NC(C)(C)C(=O)N[C@@H](Cc1cccnc1)C(=O)N[C@@H](CC(C)C)C(=O)N[C@@H](CCCC)C(=O)N(C)CC(N)=O)C(C)C)C(=O)O
hIP1 GRPR EC50: 1090 nM
